US20120251581A1

Biological target: recombinant CypA (UniProt P62937)
Experiment: cell-based or functional assay

recombinant CypA, sequence (P62937 whole entry): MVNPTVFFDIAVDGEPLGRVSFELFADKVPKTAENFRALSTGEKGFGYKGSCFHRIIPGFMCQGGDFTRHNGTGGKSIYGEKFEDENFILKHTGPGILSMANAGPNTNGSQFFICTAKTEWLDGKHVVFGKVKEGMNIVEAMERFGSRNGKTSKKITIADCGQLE

Row | Substance | CypA PPIase IC50 [nM]
1 | Cyclosporine A, 1 (peptide) | 9.7
2 | DEBIO-025, 2 (peptide) | 0.8
